From article PMC4944837 (Molecular cell, 2007)
Like-named read-outs stand apart in the source and are kept apart here. Blank lines part the entries; values can stand above or below the binder they belong to.

What was measured:
Experiment in all cases: pull-down
[1] = molecular target: T1, GST-Rb pocket (aa 379-792) (human, UniProt P06400 379-792)
T1 sequence (looked up): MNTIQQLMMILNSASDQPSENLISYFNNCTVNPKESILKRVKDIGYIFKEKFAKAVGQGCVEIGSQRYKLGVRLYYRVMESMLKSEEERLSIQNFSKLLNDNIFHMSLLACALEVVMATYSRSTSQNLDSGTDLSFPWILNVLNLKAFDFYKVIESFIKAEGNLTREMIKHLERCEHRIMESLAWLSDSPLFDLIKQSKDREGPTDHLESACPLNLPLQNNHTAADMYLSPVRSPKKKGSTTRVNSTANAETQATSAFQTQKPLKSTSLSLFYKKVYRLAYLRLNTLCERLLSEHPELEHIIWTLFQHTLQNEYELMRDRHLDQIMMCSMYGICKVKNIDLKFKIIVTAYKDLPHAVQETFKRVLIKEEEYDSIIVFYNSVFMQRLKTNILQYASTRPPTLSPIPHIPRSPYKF

GST-Rb∆N (aa 379-928) = molecular target: T2, GST-Rb∆N (aa 379-928) (human, UniProt P06400 379-928)
T2 sequence (looked up): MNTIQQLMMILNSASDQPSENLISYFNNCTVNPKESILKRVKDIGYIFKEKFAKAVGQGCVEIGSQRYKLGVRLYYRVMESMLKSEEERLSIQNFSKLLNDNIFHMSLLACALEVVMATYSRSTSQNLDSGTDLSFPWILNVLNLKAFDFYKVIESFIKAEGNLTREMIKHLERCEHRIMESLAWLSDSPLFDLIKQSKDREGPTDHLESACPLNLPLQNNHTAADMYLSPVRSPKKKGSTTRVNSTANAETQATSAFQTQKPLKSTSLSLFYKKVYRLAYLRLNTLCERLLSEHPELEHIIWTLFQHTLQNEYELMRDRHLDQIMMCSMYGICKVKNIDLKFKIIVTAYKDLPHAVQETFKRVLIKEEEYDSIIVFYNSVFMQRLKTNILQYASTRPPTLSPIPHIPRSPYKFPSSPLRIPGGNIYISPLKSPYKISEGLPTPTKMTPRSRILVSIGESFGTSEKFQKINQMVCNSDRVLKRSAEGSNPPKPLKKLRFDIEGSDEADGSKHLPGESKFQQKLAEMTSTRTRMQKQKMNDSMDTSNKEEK

[2] = molecular target: T1, GST-Rb pocket (aa 379-792); remark: listed apart in the source

- binding result [1]: binds
Binder: NRLTEELGCDEIIDRE (peptide, UniProt Q9Y6B2 172-187, looked up) [EID-1 LxCxE peptide (aa 172-187, LxCxE)]

- binding result (GST-Rb∆N (aa 379-928)): binds
- binding result [2]: binds
B1: RbN (aa 40-355), Rb N-terminal domain (domain or fragment, human, UniProt P06400 40-355, looked up)
chain: EDLPLVRLEFEETEEPDFTALCQKLKIPDHVRERAWLTWEKVSSVDGVLGGYIQKKKELWGICIFIAAVDLDEMSFTFTELQKNIEISVHKFFNLLKEIDTSTKVDNAMSRLLKKYDVLFALFSKLERTCELIYLTQPSSSISTEINSALVLKVSWITFLLAKGEVLQMEDDLVISFQLMLCVLDYFIKLSPPMLLKEPYKTAVIPINGSPRTPRRGQNRSARIAKQLENDTRIIEVLCKEHECNIDEVKNVYFKNFIPFMNSLGLVTSNGLPEVENLSKRYEEIYLKNKDLDARLFLDHDKTLQTDSIDSFETQR

- binding result [2]: binds
B2: Rb 40-355 ∆Ex5 (domain or fragment, human, UniProt P06400 40-355, looked up)
chain: EDLPLVRLEFEETEEPDFTALCQKLKIPDHVRERAWLTWEKVSSVDGVLGGYIQKKKELWGICIFIAAVDLDEMSFTFTELQKNIEISVHKFFNLLKEIDTSTKVDNAMSRLLKKYDVLFALFSKLERSTEINSALVLKVSWITFLLAKGEVLQMEDDLVISFQLMLCVLDYFIKLSPPMLLKEPYKTAVIPINGSPRTPRRGQNRSARIAKQLENDTRIIEVLCKEHECNIDEVKNVYFKNFIPFMNSLGLVTSNGLPEVENLSKRYEEIYLKNKDLDARLFLDHDKTLQTDSIDSFETQR
